Measurements published in publication PMC5352738, “Characterization of three pyranose dehydrogenase isoforms from the litter-decomposing basidiomycete Leucoagaricus meleagris (syn. Agaricus meleagris)” (Applied Microbiology and Biotechnology, 2016).

B1: AmPDH1 (Macropsalliota meleagris) (protein)
chain: AITYQHPDDLPSGVDYDFIVAGGGTAGLVVASRLSENSNWKVLVIEAGPSNKDAFVTRVPGLASTLGAGSPIDWNYTTIPQDGLDGRSLDYPRAKILGGCSTHNGMVYTRGSKDDWNSWAGIIGDQGLGWDSILPAIKKAEKFTQDFTDQSVKGHIDPSVHGFDGKLSVSAAYSNISFNDLLFETTKELNAEFPFKLDMNDGKPIGLGWTQYTIDNHAERSSSATSYLESTGDNVHVLVNTLVTRVLSASGNGTDFRKVEFAVDANSPKKQLEAKKEVIVAGGVIASPQILMNSGIGERKVLQAVGIDTLIDNPSVGKNLSDQGATSVMFDTTLPSTDFDVDAALTEWTNSHTGPLARGARLNHLTFVRLPDDKLNGQDPSSGKNSPHIEFQFAQITPQVPTLGVPKQAPLPAANSYRLLLQLAVVNLYSISRGSISLSDNNPFTYPLIDLNMFKEDIDIAILREGIRSAGRMFSSKAFKNSVNKFVYPPADATSDEDLDAFLRSSTFSYVHGVGTLSMSPKGASWGVVNPDFKVKGTSGLRVVDASVIPHAPAAHTQLPVYAFAEYASALIAKSYN
notes: full-length pdh1 (602 aa precursor) in pPICZB-His6, His6-tag kept, secreted from Pichia pastoris X33; N-glycosylated monomer, ~65 kDa deglycosylated; covalent FAD
B2: AmPDH2 (Macropsalliota meleagris) (protein)
chain: AITYQHPDDLPSGVDYDFIVAGGGTAGLVVASRLSENSKWNVLVIEAGPSNKDTPETRIPGLADNLPGTRTDWNYTTIPQDALGGRSLNYSRAKVLGGCSTHNGMVYTRGPRDDWNYWAEITDNQALKWDNVLPIMKNTEKFSQDFLDQSMEGHIDPSVHGFDGMLSVVASYTNVSFNNLLLETTRELSDEFPFKLDLNDGKPHGLAWTQYTIDQGAERSSSATSYLESTGDNVHVLVNTHVTRIVSAGNETDFRSVEFAVDANSPKKVLTAKKELILSAGVIASPQILMNSGIGGREELQAIGVDTLIDNPSVGRNLSDQASTLLMFDTTLPNTDYDVAAALTEWDNSRSGPMAYAARLNHLTWVRLPDDKLSGSDPSSGHDSPHIEFQFRQISHQLPPADVPNQVQLPDPDSIGVVLQFSVVNLYSISLGSVTLNNNDPFADPIIDLNMFGDQKDIAILREGVRSARRMFSSQAFKNVVHETVYPPAGVTSDEDLDAFLRTSAVSYLHGVGTLSMSPHSASWGVVNPDFRVKGTTGLRVVDASVIPRAPAGHTQIPVYTFAEHASALIADSYN
notes: full-length pdh2 (600 aa precursor) in pPICZB-His6, His6-tag kept, secreted from Pichia pastoris X33; N-glycosylated, ~65 kDa deglycosylated; covalent FAD
B3: AmPDH3 (Macropsalliota meleagris) (protein)
chain: AITYQHPDDLPSDVDYDFIVAGGGTAGLVVASRLSENPDWNILVIEAGPSNKDAPETRVPGLAGSLPASRTDWNYTTIPQDALGGRSLNYSRAKVLGGCSSHNSMVYTRGSKDDWNHWADITGDQGLSWDSILPVMKKAEKFSKDFSNQSVDGHIDPSMHGHDGLLSVVSSYTNVSFNDLLLETTKELSDEFPFKLDLNDGNPHGLAWTQYTIDHRAERSSSATSYLESTRDNVHVLVNSRVTRIFSAGNGTDFRSVEFAVDANSPKKVLTAKKEVILSAGVIASPQVLMNSGIGGREELQAIGVDTLIDNPSVGKNLSDQAATLLMFDTTLPNTDYDVAAALTEWEDSRSGPMAYGARLNHLTWVRLLDDKLNGSDPSSGKNSPHIEFQFMQISHQLPPADAPNQVKLPDPDSIGAVLLLAVVNLYSVSHGSIILNDNDPFANPMIDLNMFGDQKDIAILREGVRSARRMFSSQAFKDVVNGTVYPPADVTSDEDLDAFLRTSAISYWHGVGTLSMSPQNASWGVVDPDFRVKGTSGLRVVDASVIPYAPAGHTQVPVYTFAEHASVLIAKSYA
notes: full-length pdh3 (600 aa precursor) in pPICZB-His6, His6-tag kept, secreted from Pichia pastoris X33; strongly N-glycosylated, ~65 kDa deglycosylated; standard yellow form with covalent FAD

Tests used:
purified protein [1] = substrate: CO[C@H]1O[C@H](CO)[C@@H](O)[C@H](O)[C@H]1O; assay: purified protein; assay type: biochemical, Macropsalliota meleagris; details: electron donor, 0.2 mM ferrocenium, 50 mM Na phosphate pH 7.5, 30 °C
purified protein [2] = substrate: O=C1C=CC(=O)C=C1; assay: purified protein; assay type: biochemical, Macropsalliota meleagris; details: electron acceptor, 25 mM D-glucose, 100 mM Na acetate pH 4.0, 30 °C

| Protein | Km (purified protein [1]) [µM] | kcat (purified protein [1]) [s⁻¹] | kcat/Km (purified protein [1]) [M⁻¹ s⁻¹] | Km (purified protein [2]) [µM] | kcat (purified protein [2]) [s⁻¹] | kcat/Km (purified protein [2]) [M⁻¹ s⁻¹] |
| --- | --- | --- | --- | --- | --- | --- |
| B1 | 660 ± 50 | 41.5 ± 0.8 | 62900 |  |  |  |
| B2 | 2000 ± 60 | 85 ± 0.6 | 42500 | 32.5 ± 1.9 | 23.4 ± 0.5 | 780000 |
| B3 | 950 ± 60 | 1 ± 0.01 | 1050 | 1880 ± 140 | 3.57 ± 0.11 | 1890 |
